T1: LurR (Desulfovibrio vulgaris Hildenborough) (UniProt Q726T3)
T1 sequence: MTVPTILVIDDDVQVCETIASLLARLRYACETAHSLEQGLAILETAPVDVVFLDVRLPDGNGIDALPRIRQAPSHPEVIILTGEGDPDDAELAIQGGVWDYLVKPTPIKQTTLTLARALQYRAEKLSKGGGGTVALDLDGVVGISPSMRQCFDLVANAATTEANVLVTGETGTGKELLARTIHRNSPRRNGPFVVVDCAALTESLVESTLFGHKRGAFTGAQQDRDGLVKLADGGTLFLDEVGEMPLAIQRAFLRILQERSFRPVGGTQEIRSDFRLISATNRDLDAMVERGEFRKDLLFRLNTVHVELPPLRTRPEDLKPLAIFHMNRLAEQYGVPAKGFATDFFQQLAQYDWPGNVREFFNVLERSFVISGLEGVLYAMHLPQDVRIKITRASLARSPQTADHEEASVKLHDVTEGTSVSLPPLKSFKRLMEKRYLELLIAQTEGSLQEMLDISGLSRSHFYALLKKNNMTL

T2: PhoB (Desulfovibrio vulgaris Hildenborough) (UniProt Q72D47)
T2 sequence: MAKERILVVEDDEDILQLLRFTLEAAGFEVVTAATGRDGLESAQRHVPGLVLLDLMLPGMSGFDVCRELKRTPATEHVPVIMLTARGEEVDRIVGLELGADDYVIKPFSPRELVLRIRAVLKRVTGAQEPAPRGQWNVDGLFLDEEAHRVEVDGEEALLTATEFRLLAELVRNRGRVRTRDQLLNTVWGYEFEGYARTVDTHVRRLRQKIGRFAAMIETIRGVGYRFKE

T3: LurR (Desulfovibrio vulgaris Hildenborough, UniProt Q726T3 1-474)
T3 sequence: T1 sequence

B1: por LurR motif mut oligo (dsDNA)
DNA 1: GCCACACGAACTGCGCTTTTCAATCAACGCTACCAC
DNA 2: GTGGTAGCGTTGATTGAAAAGCGCAGTTCGTGTGGC

Key:
[1] = molecular target: T1, LurR (Desulfovibrio vulgaris Hildenborough); test: EMSA; details: 10 mM Tris-HCl pH 7.5, 50 mM KCl, 5 mM MgCl2, 1 ug/ml poly dI.dC, 100 fmol biotinylated DNA in 20 ul, room temperature, 20 min
[2] = molecular target: T2, PhoB (Desulfovibrio vulgaris Hildenborough); test: EMSA; details: 10 mM Tris-HCl pH 7.5, 50 mM KCl, 5 mM MgCl2, 1 ug/ml poly dI.dC, 100 fmol biotinylated DNA in 20 ul, room temperature, 20 min
LurR = molecular target: T3, LurR; test: EMSA; 0.5-1 pmol LurR; 10 mM Tris-HCl pH 7.5, 50 mM KCl, 5 mM MgCl2, 1 ug/ml poly dI.dC, 100 fmol biotinylated DNA in 20 ul, room temperature, 20 min; details: protein: recombinant; chain copies: 2; label: biotin on one strand

Row | Molecule | binding [1] | binding [2] | binding result (LurR)
1 | CGAGAAACGACAGCCGGAGGAAAAACCAAGGTTACAGCATAGTTACAGATAACACACCATTGGCACATTTCTTGTTAAACTTGCGGAGTTCGCGCTCTCCGCGCAACGGTCTCGGGCTCGCCCGCAAGCACCGTGAACTCCAGCCTCCGGCCCCCGGCGGCATGCCATTTTCACCACGCGCCCACCACAGGGCAGAAAAAGGAGATCGTAAATGGCCAAG (double strand) [por promoter substrate IV (220 bp)] | no binding | binds | –
2 | GTCAGTAGGGTAACGCCACACGAAGTCCGCTTTTCAAGACACGCTACCACGCAACCCCATCCACGAGAAACGACAGCCGGAGGAAAAACCAAGGTTACAGCATAGTTACAGATAACACACCATTGGCACATTTCTTGTTAAACTTGCGGAGTTCGCGCTCTCCGCGCAACGGTCTCGGGCTCGCCCGCAAGCACCGTGAACTCCAGCCTCCGGCCCCCGGCGGCATGCCATTTTCACCACGCGCCCACCACAGGGCAGAAAAAGGAGATCGTAAATGGCCAAG (double strand) [por promoter substrate III (283 bp)] | binds | binds | –
3 | B1 | – | – | no binding
